Measurements reported in patent US20210388087A1 (Chugai, published 2021).

B1: H183/L072 VL R54I (antibody, name in Kabat numbering, V domains shown)
VH: QVQLVESGGGLVQPGRSLRLSCAASGFTFSNAWMHWVRQAPGKGLEWVAQIKDKGNAYAAYYAPSVKGRFTISRDDSKNSIYLQMNSLKTEDTAVYYCHYVHYASASTVLPAFGVDAWGQGTTVTVSS
VL: DIVMTQSPLSLPVTPGEPASISCQASQELVHMNRNTYLHWYQQKPGQAPRLLIYKVSNIFPGVPDRFSGSGSGTDFTLKISRVEAEDVGVYYCAQGTSVPFTFGQGTKLEIK
notes: Dual-Ig
B2: H183/L072 VL R54K (antibody, name in Kabat numbering, V domains shown)
VH: QVQLVESGGGLVQPGRSLRLSCAASGFTFSNAWMHWVRQAPGKGLEWVAQIKDKGNAYAAYYAPSVKGRFTISRDDSKNSIYLQMNSLKTEDTAVYYCHYVHYASASTVLPAFGVDAWGQGTTVTVSS
VL: DIVMTQSPLSLPVTPGEPASISCQASQELVHMNRNTYLHWYQQKPGQAPRLLIYKVSNKFPGVPDRFSGSGSGTDFTLKISRVEAEDVGVYYCAQGTSVPFTFGQGTKLEIK
notes: Dual-Ig
B3: H183/L072 VL R54L (antibody, name in Kabat numbering, V domains shown)
VH: QVQLVESGGGLVQPGRSLRLSCAASGFTFSNAWMHWVRQAPGKGLEWVAQIKDKGNAYAAYYAPSVKGRFTISRDDSKNSIYLQMNSLKTEDTAVYYCHYVHYASASTVLPAFGVDAWGQGTTVTVSS
VL: DIVMTQSPLSLPVTPGEPASISCQASQELVHMNRNTYLHWYQQKPGQAPRLLIYKVSNLFPGVPDRFSGSGSGTDFTLKISRVEAEDVGVYYCAQGTSVPFTFGQGTKLEIK
notes: Dual-Ig
B4: H183/L072 VL R54M (antibody, name in Kabat numbering, V domains shown)
VH: QVQLVESGGGLVQPGRSLRLSCAASGFTFSNAWMHWVRQAPGKGLEWVAQIKDKGNAYAAYYAPSVKGRFTISRDDSKNSIYLQMNSLKTEDTAVYYCHYVHYASASTVLPAFGVDAWGQGTTVTVSS
VL: DIVMTQSPLSLPVTPGEPASISCQASQELVHMNRNTYLHWYQQKPGQAPRLLIYKVSNMFPGVPDRFSGSGSGTDFTLKISRVEAEDVGVYYCAQGTSVPFTFGQGTKLEIK
notes: Dual-Ig
B5: H183/L072 VL R54P (antibody, name in Kabat numbering, V domains shown)
VH: QVQLVESGGGLVQPGRSLRLSCAASGFTFSNAWMHWVRQAPGKGLEWVAQIKDKGNAYAAYYAPSVKGRFTISRDDSKNSIYLQMNSLKTEDTAVYYCHYVHYASASTVLPAFGVDAWGQGTTVTVSS
VL: DIVMTQSPLSLPVTPGEPASISCQASQELVHMNRNTYLHWYQQKPGQAPRLLIYKVSNPFPGVPDRFSGSGSGTDFTLKISRVEAEDVGVYYCAQGTSVPFTFGQGTKLEIK
notes: Dual-Ig
B6: H183/L072 VL R54Q (antibody, name in Kabat numbering, V domains shown)
VH: QVQLVESGGGLVQPGRSLRLSCAASGFTFSNAWMHWVRQAPGKGLEWVAQIKDKGNAYAAYYAPSVKGRFTISRDDSKNSIYLQMNSLKTEDTAVYYCHYVHYASASTVLPAFGVDAWGQGTTVTVSS
VL: DIVMTQSPLSLPVTPGEPASISCQASQELVHMNRNTYLHWYQQKPGQAPRLLIYKVSNQFPGVPDRFSGSGSGTDFTLKISRVEAEDVGVYYCAQGTSVPFTFGQGTKLEIK
notes: Dual-Ig
B7: H183/L072 VL R54S (antibody, name in Kabat numbering, V domains shown)
VH: QVQLVESGGGLVQPGRSLRLSCAASGFTFSNAWMHWVRQAPGKGLEWVAQIKDKGNAYAAYYAPSVKGRFTISRDDSKNSIYLQMNSLKTEDTAVYYCHYVHYASASTVLPAFGVDAWGQGTTVTVSS
VL: DIVMTQSPLSLPVTPGEPASISCQASQELVHMNRNTYLHWYQQKPGQAPRLLIYKVSNSFPGVPDRFSGSGSGTDFTLKISRVEAEDVGVYYCAQGTSVPFTFGQGTKLEIK
notes: Dual-Ig
B8: H183/L072 VL R54T (antibody, name in Kabat numbering, V domains shown)
VH: QVQLVESGGGLVQPGRSLRLSCAASGFTFSNAWMHWVRQAPGKGLEWVAQIKDKGNAYAAYYAPSVKGRFTISRDDSKNSIYLQMNSLKTEDTAVYYCHYVHYASASTVLPAFGVDAWGQGTTVTVSS
VL: DIVMTQSPLSLPVTPGEPASISCQASQELVHMNRNTYLHWYQQKPGQAPRLLIYKVSNTFPGVPDRFSGSGSGTDFTLKISRVEAEDVGVYYCAQGTSVPFTFGQGTKLEIK
notes: Dual-Ig
B9: H183/L072 VL R54V (antibody, name in Kabat numbering, V domains shown)
VH: QVQLVESGGGLVQPGRSLRLSCAASGFTFSNAWMHWVRQAPGKGLEWVAQIKDKGNAYAAYYAPSVKGRFTISRDDSKNSIYLQMNSLKTEDTAVYYCHYVHYASASTVLPAFGVDAWGQGTTVTVSS
VL: DIVMTQSPLSLPVTPGEPASISCQASQELVHMNRNTYLHWYQQKPGQAPRLLIYKVSNVFPGVPDRFSGSGSGTDFTLKISRVEAEDVGVYYCAQGTSVPFTFGQGTKLEIK
notes: Dual-Ig
B10: H183/L072 VL R54W (antibody, name in Kabat numbering, V domains shown)
VH: QVQLVESGGGLVQPGRSLRLSCAASGFTFSNAWMHWVRQAPGKGLEWVAQIKDKGNAYAAYYAPSVKGRFTISRDDSKNSIYLQMNSLKTEDTAVYYCHYVHYASASTVLPAFGVDAWGQGTTVTVSS
VL: DIVMTQSPLSLPVTPGEPASISCQASQELVHMNRNTYLHWYQQKPGQAPRLLIYKVSNWFPGVPDRFSGSGSGTDFTLKISRVEAEDVGVYYCAQGTSVPFTFGQGTKLEIK
notes: Dual-Ig
B11: H183/L072 VL S26D (antibody, name in Kabat numbering, V domains shown)
VH: QVQLVESGGGLVQPGRSLRLSCAASGFTFSNAWMHWVRQAPGKGLEWVAQIKDKGNAYAAYYAPSVKGRFTISRDDSKNSIYLQMNSLKTEDTAVYYCHYVHYASASTVLPAFGVDAWGQGTTVTVSS
VL: DIVMTQSPLSLPVTPGEPASISCQADQELVHMNRNTYLHWYQQKPGQAPRLLIYKVSNRFPGVPDRFSGSGSGTDFTLKISRVEAEDVGVYYCAQGTSVPFTFGQGTKLEIK
notes: Dual-Ig
B12: H183/L072 VL S26E (antibody, name in Kabat numbering, V domains shown)
VH: QVQLVESGGGLVQPGRSLRLSCAASGFTFSNAWMHWVRQAPGKGLEWVAQIKDKGNAYAAYYAPSVKGRFTISRDDSKNSIYLQMNSLKTEDTAVYYCHYVHYASASTVLPAFGVDAWGQGTTVTVSS
VL: DIVMTQSPLSLPVTPGEPASISCQAEQELVHMNRNTYLHWYQQKPGQAPRLLIYKVSNRFPGVPDRFSGSGSGTDFTLKISRVEAEDVGVYYCAQGTSVPFTFGQGTKLEIK
notes: Dual-Ig
B13: H183/L072 VL S26F (antibody, name in Kabat numbering, V domains shown)
VH: QVQLVESGGGLVQPGRSLRLSCAASGFTFSNAWMHWVRQAPGKGLEWVAQIKDKGNAYAAYYAPSVKGRFTISRDDSKNSIYLQMNSLKTEDTAVYYCHYVHYASASTVLPAFGVDAWGQGTTVTVSS
VL: DIVMTQSPLSLPVTPGEPASISCQAFQELVHMNRNTYLHWYQQKPGQAPRLLIYKVSNRFPGVPDRFSGSGSGTDFTLKISRVEAEDVGVYYCAQGTSVPFTFGQGTKLEIK
notes: Dual-Ig
B14: H183/L072 VL S26G (antibody, name in Kabat numbering, V domains shown)
VH: QVQLVESGGGLVQPGRSLRLSCAASGFTFSNAWMHWVRQAPGKGLEWVAQIKDKGNAYAAYYAPSVKGRFTISRDDSKNSIYLQMNSLKTEDTAVYYCHYVHYASASTVLPAFGVDAWGQGTTVTVSS
VL: DIVMTQSPLSLPVTPGEPASISCQAGQELVHMNRNTYLHWYQQKPGQAPRLLIYKVSNRFPGVPDRFSGSGSGTDFTLKISRVEAEDVGVYYCAQGTSVPFTFGQGTKLEIK
notes: Dual-Ig
B15: H183/L072 VL S26H (antibody, name in Kabat numbering, V domains shown)
VH: QVQLVESGGGLVQPGRSLRLSCAASGFTFSNAWMHWVRQAPGKGLEWVAQIKDKGNAYAAYYAPSVKGRFTISRDDSKNSIYLQMNSLKTEDTAVYYCHYVHYASASTVLPAFGVDAWGQGTTVTVSS
VL: DIVMTQSPLSLPVTPGEPASISCQAHQELVHMNRNTYLHWYQQKPGQAPRLLIYKVSNRFPGVPDRFSGSGSGTDFTLKISRVEAEDVGVYYCAQGTSVPFTFGQGTKLEIK
notes: Dual-Ig
B16: H183/L072 VL S26I (antibody, name in Kabat numbering, V domains shown)
VH: QVQLVESGGGLVQPGRSLRLSCAASGFTFSNAWMHWVRQAPGKGLEWVAQIKDKGNAYAAYYAPSVKGRFTISRDDSKNSIYLQMNSLKTEDTAVYYCHYVHYASASTVLPAFGVDAWGQGTTVTVSS
VL: DIVMTQSPLSLPVTPGEPASISCQAIQELVHMNRNTYLHWYQQKPGQAPRLLIYKVSNRFPGVPDRFSGSGSGTDFTLKISRVEAEDVGVYYCAQGTSVPFTFGQGTKLEIK
notes: Dual-Ig
B17: H183/L072 VL S26K (antibody, name in Kabat numbering, V domains shown)
VH: QVQLVESGGGLVQPGRSLRLSCAASGFTFSNAWMHWVRQAPGKGLEWVAQIKDKGNAYAAYYAPSVKGRFTISRDDSKNSIYLQMNSLKTEDTAVYYCHYVHYASASTVLPAFGVDAWGQGTTVTVSS
VL: DIVMTQSPLSLPVTPGEPASISCQAKQELVHMNRNTYLHWYQQKPGQAPRLLIYKVSNRFPGVPDRFSGSGSGTDFTLKISRVEAEDVGVYYCAQGTSVPFTFGQGTKLEIK
notes: Dual-Ig
B18: H183/L072 VL S26L (antibody, name in Kabat numbering, V domains shown)
VH: QVQLVESGGGLVQPGRSLRLSCAASGFTFSNAWMHWVRQAPGKGLEWVAQIKDKGNAYAAYYAPSVKGRFTISRDDSKNSIYLQMNSLKTEDTAVYYCHYVHYASASTVLPAFGVDAWGQGTTVTVSS
VL: DIVMTQSPLSLPVTPGEPASISCQALQELVHMNRNTYLHWYQQKPGQAPRLLIYKVSNRFPGVPDRFSGSGSGTDFTLKISRVEAEDVGVYYCAQGTSVPFTFGQGTKLEIK
notes: Dual-Ig
B19: H183/L072 VL S26M (antibody, name in Kabat numbering, V domains shown)
VH: QVQLVESGGGLVQPGRSLRLSCAASGFTFSNAWMHWVRQAPGKGLEWVAQIKDKGNAYAAYYAPSVKGRFTISRDDSKNSIYLQMNSLKTEDTAVYYCHYVHYASASTVLPAFGVDAWGQGTTVTVSS
VL: DIVMTQSPLSLPVTPGEPASISCQAMQELVHMNRNTYLHWYQQKPGQAPRLLIYKVSNRFPGVPDRFSGSGSGTDFTLKISRVEAEDVGVYYCAQGTSVPFTFGQGTKLEIK
notes: Dual-Ig
B20: H183/L072 VL S26N (antibody, name in Kabat numbering, V domains shown)
VH: QVQLVESGGGLVQPGRSLRLSCAASGFTFSNAWMHWVRQAPGKGLEWVAQIKDKGNAYAAYYAPSVKGRFTISRDDSKNSIYLQMNSLKTEDTAVYYCHYVHYASASTVLPAFGVDAWGQGTTVTVSS
VL: DIVMTQSPLSLPVTPGEPASISCQANQELVHMNRNTYLHWYQQKPGQAPRLLIYKVSNRFPGVPDRFSGSGSGTDFTLKISRVEAEDVGVYYCAQGTSVPFTFGQGTKLEIK
notes: Dual-Ig
B21: H183/L072 VL S26P (antibody, name in Kabat numbering, V domains shown)
VH: QVQLVESGGGLVQPGRSLRLSCAASGFTFSNAWMHWVRQAPGKGLEWVAQIKDKGNAYAAYYAPSVKGRFTISRDDSKNSIYLQMNSLKTEDTAVYYCHYVHYASASTVLPAFGVDAWGQGTTVTVSS
VL: DIVMTQSPLSLPVTPGEPASISCQAPQELVHMNRNTYLHWYQQKPGQAPRLLIYKVSNRFPGVPDRFSGSGSGTDFTLKISRVEAEDVGVYYCAQGTSVPFTFGQGTKLEIK
notes: Dual-Ig

Each binder was assayed against T1, Human CD137 ECD (human) (assay: Biacore SPR, vs parent H183/L072).
T1 construct: entry includes C-terminal His-tag and biotin acceptor peptide; also called human CD137 extracellular domain; 4-1BB
T1 sequence (chain, as listed by the source limits assumed): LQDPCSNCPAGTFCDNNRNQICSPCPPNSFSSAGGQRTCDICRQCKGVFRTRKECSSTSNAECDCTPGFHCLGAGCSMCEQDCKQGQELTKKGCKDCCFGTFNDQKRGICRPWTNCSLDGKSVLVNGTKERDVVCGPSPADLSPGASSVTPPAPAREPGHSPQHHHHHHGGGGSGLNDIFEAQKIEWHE

B1 and B2 are the same in “fold change of affinity” value: 1 fold for the first, 1 fold for the second.

Compared with B3, B4 is lower in “fold change of affinity” value: 0.9 fold for the first, 0.5 fold for the second.

Compared with B5, B6 is lower in “fold change of affinity” value: 0.9 fold for the first, 0.8 fold for the second.

First: B7
Second: B8
The “fold change of affinity” value of the first is lower: 0.9 fold for the first, 2.5 fold for the second.

First: B9
Second: B10
The “fold change of affinity” value of the first is higher: 1.3 fold for the first, 0.4 fold for the second.

B11 and B12 are the same in “fold change of affinity” value: 0.8 fold for the first, 0.8 fold for the second.

Compared with B13, B14 is higher in “fold change of affinity” value: 0.2 fold for the first, 0.9 fold for the second.

B15 and B16 are the same in “fold change of affinity” value: 0.2 fold for the first, 0.2 fold for the second.

Going from B17 to B18, the “fold change of affinity” value falls from 0.5 fold to 0.3 fold.

Going from B19 to B20, the “fold change of affinity” value rises from 0.6 fold to 0.7 fold.

In the case of B21, the “fold change of affinity” value is reported as 0.2 fold.
